Experiment: soluble fraction after stress (log2 fold change); higher = more stays soluble; pooled small domains, quantitative proteomics
Settings: stress: pH 4
How it was run: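 Custom libraries of small protein domains were pooled and exposed to pH 4. High-throughput quantitative proteomics then measured the log2 fold change in the amount of each domain still soluble, with higher values meaning more stayed soluble. This soluble-fraction fold change stands for aggregation propensity.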

Sequence | soluble fraction (log2)
HMDDENKIEVMINEEKVQLTGKDKYVFVDIFNYIDMDLTRIHGNLVLKLNGENASHNSLLKSGDKIEARWE | -1.92
HMKNLTEVEYSEFLESIAQDRVSKVQVDGLIIRGEMNDGQRFETVQPQVTDKALIDDMVNHRVDFSGARP | -0.726
HMTIDANAIEKMVLDLIGEHPNEWGRYRDGDKKVQGFFVGQIMKATSGQADGKIVNQILSQHAEA | 0.126
HMQVSDVTELRTILEKVITENESVATEFKEGKDAAMNFLVGQGMKATRGAADPALLKEIITGIL | -0.358
HMRSSNEAVSQRRDKILDYISATGRTSTEIVAKEFGVSVMTARRDLLYLMEKRLISKSSSGLFKVDNN | 0.408
HMKLSKKVTDFLAQMPSKSISPKMLANNLGLADDAGDYKHLLKTIAQLEESKAIEVTAAGNIALPQPE | 0.0669
HMKGLDRATNKALLLKHIIDNGSTGTRFSELRQVLPSLTRGSISSLLIELRSEGKIHSIGVTRNARWYPTE | -0.309
HMLSVRERMSAILVSLEGERYADFTGLFDPTEGKGGVTVTFLAILELLKESMIDVVQNELYGPIHVRAA | 0.122
HMHPDALTEREREVLSLLADGLSNREIAARLVLALGTVKWYISVIYSKLGVTRRTQAIARARELHLV | -0.41
HMARRSRADAVRNREALIDAAKAAFTEAGPDVSLEEIARRAGVGIGTLYRHFPTRDAVIEAVYR | -0.206
HMATVHPIRIQGGMTTQQGGKTVWLWVSDEGRLMTEDEIAGESGGTVSSRMVRGVRVLTGTGVIYG | -0.57
HMSQNVSFTVDSGQAGLRLDVFLSQADPAFSRSQIKYAIEEGDVTVNGKEPKVSQHLKDGDIVELHLE | 0.114
HMSAITLDQARAIALDHAGISEGDATFVKEQTGTSSYEIEFYSGSNEYDYEIDKATGAILNVDR | 0.22
HMGVSDDMARGVVRARQFLSDFAAVPLDRMTPAEAVARARQLKSELETDAKHSPWLLDVLSNA | -0.37
HMSGSKEQQIVILNNILERQLQAFGLQGNREFPMVTLKNIYNSLSKIIENAGLKNVENYFVNPEQGKQM | -0.394
HMTSPVEDLLDKAIQLYREENFEEAIAKWEEVLALDPSKLEAKFNIEIAQDRIKEKQIQEDLKSS | -0.935
HMRRSVYQANVLDAIKHLVDQNELATTKAIAEYIGDDYQGNVSRAIRELLADRKIKKLPKVGVLQPYEA | 0.127
HMSLSKQETEFLTTFSASGKRVFTYQQATDYWQSKVAATNVLGRLVRKGWLQRLERGLYMIIPLEAGPERF | -0.807
HMKNIFDWLKQINYHKQPADSFTEKDWELFNSYMVHRFMSMNREFIEVVNYVQEMPPQEKILIYNIYREF | 0.25
HMLTWNQLGLITKPVVFLDGTGYYARLFEAFEHMISTGFVKENYRAMMNRATSVEEAVRIASSPAPKVD | -0.187
HMISKWGELVDLAVQLDIIQKSGSWFSMGDERIGQGANSVKDYLIANPDIAEKVEAEVRENLWKLN | -0.351
HMVFRFELQPSSATPLYRQIVEQVTRAVAAGVLRDGEELPSVRAVAQEYVINPMTVSKAYSLLEAQSI | -0.34
HMLPDGEAFVKVNTSLNIRTGPWGQIVGWFHNNDKVKIIGRDGDWYKISHNGQTRYIHSRYVSSSR | -0.0297
HMLLRVGGLVKDGSVRTDNDLGIKFIIEDNLAEVSVLYNGILPDLFREGQGVIAEGKFIDNIFIANEIVA | -1.13
HMSDTVDITKLGIAGKTKEAAEALLKENGFSVESKEENSDTIEKGKVISYSPTKPKNGDRITLIVSSGKK | 0.301
HMRPHDDHLREQLLGIATETIARTGVEGLSLRTLATDAGTSTSAVYQLFGSRAALLDAVYLRVLE | -0.733
HMGMSQQKQSSTVRIIMQDISDANEGLMKMSQIIDAALAEGISETIVRNAISNLHRGGTIYESQTGTYQW | -0.392
HMKNIINLVIDGELHGKRIDAVIAQKNDSLSRTRIKNLVINGNLSINDEIVSDPSKKIYKDDKVSLTIPLP | -0.085

Sequence | soluble fraction (log2)
HMLKEGIKEKINQLQVYADKNDNIIWYDRVVDILSDKDDSVTDEMIEAAIRTLEEAGISVERKQ | -1.04
HMKQQNFADLAGRFVFNADNEVVFNFGKHKNVPVATVLKNEPGYYGWMMGGDFPLFTKKILKQIKEA | -0.952
HMKKGRIGSIIQYVREHPGVSSSEIITGLGLDISPATIRRDLTLLVAENKLSVEGQNKGTKYFVSPTYDMF | 0.271
HMGHEALSSKLDEIQGVGKEKRSLLLDHFKTFERIKNASMEELEAVPSLGKNTAKAVFRFFHS | 0.236
HMKSLHSEVTDRIRQLIVESHLQPGQRVPELEISRDLGVSRTPIREALKVLAAEGLVELLPLRGAMVK | -0.104
HMKYSELLLEIILQSKEHPTAEQIFIEAKKRNPKIVQATVYNNLKNLLAQGRVIRISNPGQPDRYDNT | 0.0505
HMGVNNDIIKHRKLEFMIEMLPDTFTRKEANEIGEGLGISLATLTRYLSSDAFERTGHGRYRKKD | 0.139
HMFDFLELGQAIQDAREKQRITREELAEELGISARHLQSVEKEGQYPSFRLFIQLVTMFHISVDQYI | -0.586
HMQGEAMQETVKKLDAFLQDNSVSMSALARALGVSPSLISQFRSGSYKGDSQAIAAKINSYIDNHNKKSK | 0.0656
HMVTPAQQARDTLLGALVGLARATTSEPKTDDTDVVLNAGLRLAAQPDAPEERLQRMLAIVQTEKHRV | 0.215
HMGIAKYRQVTEWIQNRIATGELNRGDQIESENDISRTFGISRQTVRHALGLLEQQGILTRIQGRGTFVRD | 0.309
HMLSAGETYTLGYLKASDGILFTAADGSEQTVMQRVQVRLYDNGDGTYTARLADDIAYSAVVTEDMIDK | 0.256
HMTTPDIIVPDVKGMTVAEAQKALEEKGFKVKLEEMTQEGAVPGDVIRIDPVAGTKRKEGAKITLLIARG | -0.0525
HMQLDLSDPSKNKLDSIVSLPIKSLKAVEANGEILFMSENGRFVLRGQLYDIWYKDTLDTSAQIQDAATRI | 0.179
HMKKPRKTSRKSIENAAIFYLQRFSSSIENLRRVLMRRVYRSAQYHNTKPEEDAKIVDSIIYRLIETGVL | -0.0658
HMKAMIIVMKPGADMATISKVLKTIETNGFKPHLSKGEETTVIGVIGDERKLNPDIFSTLEGVERIVPVA | 0.279
HMIGHIGSAVMLNAKLRPRLPLLHVLALTQSLGERLSAAEAQPEVYRWSDPGQSRVIAEFEGGRLTRWRLE | -0.968
HMEVSVPDFTGMSKSDAQNAAKEAGLTVNFEEDYDNQVPAGQVIRSNPSAGEKVKKNSSVTVTLSKGSN | 0.24
HMDWFDELKVSTDDSGRVTAPEESEFMFQTSNEKIFAGGDMVRGSDLVVTAIWEGRQAAEGIMDYLD | -0.726
HMLRDMIIQSYRYYTDKERNPRQVWNRMEADAFWEIIRDYEGYNGDGYVHTKIIPEMEALTVIEMDN | -1.62
HMEKGWYKLGQDSYYVDDDGKIHKGWLELDGKKYYFDQEGKMVTGTVNIDGKDYTFNEKGELYVS | -0.029
HMNNLELSEEEKSVLTIIEKEGLIELDKLKTKLELSNKKWDKTLKFLTKNKLAKVVKNDNGLFVEL | 0.0993
HMGVGVKSTEVDYQRTSSGSDIPTDDAAWTKTIPAVKVNTFLWTRTKINYTDGTSAIFYSVGY | 0.419
HMGGTTLIAKQATVTGDIQFSSNLDIEGRVVGAISVEPGKEAMLHVVEGGSVEGEIRVPSAVINGKVTGDI | -0.775
HMTSPQGIERFLASGVIEGVGKAMAARIVAVFGGQTLEIIEKQPHRLREVRGIGVKTAEKIHASYQEKA | -0.203
HMYTTHTQSELNEAARFNGRATYQKGIYYNESKKEHFKVVNGKYQALPNVKQVNGDSWIDKTGITHKG | 0.202
HMLTGADAEKATAAAQAEFPGGTVLRVETDADGTYEAHVRKADGTEVEVKMDKDFKVTSVEE | -0.0221

— the domain aggregation screens of Martell et al. (2025)
